Source: PMC9257043

Biological target: recombinant SmFGFRA extracellular ligand binding domain (rSmFGFRA-L) (Schistosoma mansoni)
Assay: BLI; Octet RED 96; biotinylated rSmFGFRA-L immobilised on Streptavidin Biosensors, human aFGF/bFGF in dilution series as analyte; kinetic buffer (PBS with 15 mM NaCl, 0.1 mg/ml BSA, 0.002% Tween-20); association 1000 s, dissociation 1000 s; 30°C, 1000 rpm; double reference subtraction

Substance	Kd [nM]
human acidic FGF (aFGF) (from UniProt P05230 16-155) (ligand)	5.81
human basic FGF (bFGF) (from UniProt P09038 143-288) (ligand)	0.36
